Assay: yeast display, Sf9 membrane polyspecificity reagent, FACS + sequencing; frameworks hold sequencing errors
Procedure, shortened: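 Using colony PCR, genes from sorted yeast display clones were amplified, then sequenced on MiSeq at 2 × 250 and filtered by CDR length. The clones had been stained with 10% biotinylated, detergent-solubilized Sf9 membrane reagent for 1 hour at 4 °C and sorted by FACS into low and high (top ~1%) gates on anti-HA and streptavidin fluorescence. Polyreactivity labels come from the gate of origin.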
In the case of “QFQLVDSVGGLDQAGGSLRLSSDASGLTLIGNAMGWYRQAPVKERELVASITIGGTTYADSVKGRFTISRDNAKNTVYLQMNSLKPEDTEVYYCAADFSSFSIDTGYDYWGQGTQVTVSS”, the “polyreactivity (PSR sort gate)” value is reported as “low polyreactivity”.
With “QFQLVESAGGLFQAVGSHRLSCAASGRTFTQYAMGWYRQAPGKERELVAAISWRGGSTYYADSVKGRFTISRDNAKNTVYLQMNSLKPEDTAVYYCAKRYFRGYPLYDYWGQGTQVTVSS” the “polyreactivity (PSR sort gate)” value was “high polyreactivity”.
With “QFQLVESCGGLVQAGGTLRLSCAASGFIFDIYERGWYRQAPGKERELVAAITWNSGSTHYADSVKGRFTISRDNAKKTVYLQMNSLNPDDTAVYYCAAVEVTYAYYPYDYCGQGTQVTVSS” the “polyreactivity (PSR sort gate)” value was “low polyreactivity”.
For “QFQLVESGGCLVQAGGSLRLSCAASGFIFLQYAMGWYRQAPGKETELGAAITSGGGTNYEDSVKGRFTISRDNAKNTVYLPMNSLKPEDTAGYNCAARTWPWVLGATQDDYWGQGTQVTVSS”, the “polyreactivity (PSR sort gate)” value was “low polyreactivity”.
In the case of “QFQLVESGGCLVQAGGSLRLSCAASGRTFGWYAMGWYRQAPGKERELVAAISTRGTRTYYADSVKGRFTISRDNAKITDYLQMYSLKPEDTAVYYCNAKRRAVTTAHGIPEEDYWGQGTKVTVSS”, the “polyreactivity (PSR sort gate)” value is reported as “high polyreactivity”.
With “QFQLVESGGGFVQAGGSLRLSCAASGSIFLYNDMGWYRQAPGKDRELLPAITSDGSTNYADSVKGRFTISRDNAKNTVYLQMNSLKPEDTAVYYCAADALWFYLNWYYGGTAYGYWGQGTQVTVSS” the “polyreactivity (PSR sort gate)” value was “low polyreactivity”.
In the case of “QFQLVESGGGLDQAGGSLRISCAASGSTFSYNAIGWYRQAPGKERELVAAITSRGGSTRYADSVKGRFTISRDNAKNTVYLQMNSLNPEDTAVYYCARPYSYYPYSTVNYWGQGTQVTVSS”, the “polyreactivity (PSR sort gate)” value is reported as “high polyreactivity”.
For “QFQLVESGGGLLQAGGSLRLSCAASGFTFSYNAKGWYRKAPGKERELVAAISSSGGSTYYADSVKGRFTISRDNAKNTVYLQMNILKPEDPSVYYCAVPYLTLYGRSYDYWGQGTQVTVSS”, the “polyreactivity (PSR sort gate)” value was “high polyreactivity”.
For “QFQLVESGGGLLQAGGSLRLSCAASGLTFNQKAMGWYTQAPGKDRELVAAISRRGGSTYYADSVKGRFTFSRENAKNTVYLQLNSLKPEDTAVYYCNTRGKSGLWWYYYWGQGTQVTVSS”, the “polyreactivity (PSR sort gate)” value was “high polyreactivity”.
For “QFQLVESGGGLVHAGGSLRLSCAATGSTLPGYAMGWYRQAPGKERELVAAITSRGGTTYYADSVKGRFTISCDNAKKTVYLQMNSLKPEDTAVYYCAAYTSYASDYWGQGTQVTVSS”, the “polyreactivity (PSR sort gate)” value was “high polyreactivity”.
With “QFQLVESGGGLVKAGGSLRLSSAASGGTFGYYTMGWYRQAPGKERELVAAISSGGGTDYADSVKGRFTISRDNAKNTVYFQMTSLKPEDTALYYCATVSDYPWRYDYWVQGTQVTVSS” the “polyreactivity (PSR sort gate)” value was “low polyreactivity”.
With “QFQLVESGGGLVQAGASLRLSCAASGSIFDLNALGWYRQAPGKDRELVAAITRDSGITYYADSVKGRFKISRDNAKNTVYLQMNSLKPEDTAVYYCAADADSSSGDSWGQGTQVTVSS” the “polyreactivity (PSR sort gate)” value was “low polyreactivity”.
With “QFQLVESGGGLVQAGGILRLSCADSGSTFRWYAMGWYRKAPGKERELVASITYSGASTYYADSVKGRFTISRDNAKNTVYLQMISLKPEDTAVYYCNAVFWFSYVSEYDYWGQGTQVTVSS” the “polyreactivity (PSR sort gate)” value was “high polyreactivity”.
In the case of “QFQLVESGGGLVQAGGRLRLSCAASGSIFYRNAMGWYRQAPGKERELVAAISASGGSTYYADSVKGRFTISRDNEKNTVYLQMIILKPEDTAVYYCDVEYRKSRSYAPMGYWGQGTQVTVSS”, the “polyreactivity (PSR sort gate)” value is reported as “high polyreactivity”.
For “QFQLVESGGGLVQAGGSLRISCAASGSTFVLNAMGWYRQAPGKDREWVAAISQSDYSTYYSDSVKGRFTISRDNAKNTVYLQMNSLKPEDTAVYYSAREYAHLSFLSTSSDYWGQGTQVTVSS”, the “polyreactivity (PSR sort gate)” value was “low polyreactivity”.
For “QFQLVESGGGLVQAGGSLRLRCAATGSNFYVYALGWYRQAPGKETELVAAIRRTGSSTYYADSVKGRFTMSRDNAKNTDYLQMNSLKPEDTAVYYCAARYWRARAGSYDYWGQGTQVTVSS”, the “polyreactivity (PSR sort gate)” value was “high polyreactivity”.
In the case of “QFQLVESGGGLVQAGGSLRLSCAASGFIFGGNVMGWYRQAPGKERELVAAITSSATTYYADSVKGRFTISRDNAKNTVYLQMNSLKREDTAVYYCAADTWTIVDYGYWGQGTQVTVSS”, the “polyreactivity (PSR sort gate)” value is reported as “low polyreactivity”.
For “QFQLVESGGGLVQAGGSLRLSCAASGFIFGYNAMGWYRQAPGKERELVAPITYNGASTNYADSVKGRFTISRDNAKNTVYLQMNSLKPEDTAVYYCAADYGPYDPEDDWGQGTQVTVSS”, the “polyreactivity (PSR sort gate)” value was “low polyreactivity”.
For “QFQLVESGGGLVQAGGSLRLSCAASGFIFKPYTMGWYRQAPGKERELVATITFSGGSTYYADSVKGRFTISLDNAQNTVYLQMNSLNPEDTAVYYCADPRYYRGYSIFDYLGQGTQVTVSS”, the “polyreactivity (PSR sort gate)” value was “low polyreactivity”.
In the case of “QFQLVESGGGLVQAGGSLRLSCAASGFIFSTYTMGWYRQAPGKERELVAAISSGGGTYYADSVKGRFTISRDNAKNTVYLQMNSLKPEDTAVYYCAALVYSSYPAGWYDYWGQGTQVTVSS”, the “polyreactivity (PSR sort gate)” value is reported as “high polyreactivity”.
In the case of “QFQLVESGGGLVQAGGSLRLSCAASGFIFYKYAMGWYRQAPGKERELVAAISSIGGRTYYADSVKGRFTISRDNAKNTVYLQMNSLKPEDTAVYYCAARYRRTIPWFAPGNDHKYWGQGTQVTVSS”, the “polyreactivity (PSR sort gate)” value is reported as “high polyreactivity”.
With “QFQLVESGGGLVQAGGSLRLSCAASGFILWTYAMGWYRQAPGKERELVAAISTTGGSTYYADSVKGRFTISRDNAKNTVYCQMNSLKPEDTAVYYCAAQVGRGYEVYPVYKYGYWGQGTQVTVSS” the “polyreactivity (PSR sort gate)” value was “high polyreactivity”.
With “QFQLVESGGGLVQAGGSLRLSCAASGFTFDDYDMGWYRQAPGKERELVAAISWSGGSTYYADSVKGRFTISRDNSKNTVYLQMNSLKPEDTAVYYCAAERSYGGFDYWGQGTQVSVSS” the “polyreactivity (PSR sort gate)” value was “low polyreactivity”.
With “QFQLVESGGGLVQAGGSLRLSCAASGFTISWNTMGWYRQAPRKERELVATISGSGGRTYYADSVKGRFTISRDNAKNTVYFQMNSMKPEDTAVYYCAARYVLGGQGTSRRVRGGYWGQGTQLTVSS” the “polyreactivity (PSR sort gate)” value was “high polyreactivity”.
For “QFQLVESGGGLVQAGGSLRLSCAASGFTLRTYAMGWYRQAPGKERELVAAITVSGGTYYADSVKGRFTISRDNAKYTVYLQMNSLKPEDTAVYYCTAKRFGTGFDYWGQGTQVTVSS”, the “polyreactivity (PSR sort gate)” value was “low polyreactivity”.
With “QFQLVESGGGLVQAGGSLRLSCAASGIIFAQYTMGWYRQAPGKDRELGAAINRNGGSTYYADSVKGRFTISRDNAKNTVYLQMNSLKPEDTAVYYCIADALGFRYDYWGQGTQVTVSS” the “polyreactivity (PSR sort gate)” value was “low polyreactivity”.
In the case of “QFQLVESGGGLVQAGGSLRLSCAASGIIFHIYAMGWYRQAPGKERELVAAISTGSSTYYADSVKGRFTISRDNAKNTVYLQMNSLKPEDTSVSYCNAVSRYLWVKGFDYWGQGTQVTVSS”, the “polyreactivity (PSR sort gate)” value is reported as “low polyreactivity”.
With “QFQLVESGGGLVQAGGSLRLSCAASGITFKTYAMGCYRQAPGKERELFATINRGSRTNYADSVKGRFTISRDNAKNTVYLQMNSLKPEDTAVYYCAAHYTTFIPSPDGDYLGQGTQVTVSS” the “polyreactivity (PSR sort gate)” value was “low polyreactivity”.
For “QFQLVESGGGLVQAGGSLRLSCAASGITFRDYAMGWYRQAPGKERELVAAISTRGVRTYYADSVKGRFTISRDNAKNTVYLQMNSLKPEDTAVYYCAARSVTYWWVGYEFYYWGQGTQVTVSS”, the “polyreactivity (PSR sort gate)” value was “high polyreactivity”.
In the case of “QFQLVESGGGLVQAGGSLRLSCAASGITIRWYAMGWYRQAPGKERELVAGISSRGDSTYYADSVKGRFTISRDNAKNTVYLQMNSLKREDTAVYYCAAPGSSYRGRGYDYWGQGTQVTVSS”, the “polyreactivity (PSR sort gate)” value is reported as “high polyreactivity”.
With “QFQLVESGGGLVQAGGSLRLSCAASGLIFRHYVMGWYRQAPGKERELVAAITSRGGTTYYADSVKGRFTISRDNEKNTVYLQMNIMKPEDTAVYYCNAVDIDPTRYEYDYWGQVTQVTVSS” the “polyreactivity (PSR sort gate)” value was “high polyreactivity”.
In the case of “QFQLVESGGGLVQAGGSLRLSCAASGLIFVGNPMGWYRQAPGKERELVAAISSRGGRTYYADSVKGRFTISRDNAKNTVYLQMNSLKPEDTAVYYCIAANSQWGFEYWGQGTQVTVSS”, the “polyreactivity (PSR sort gate)” value is reported as “high polyreactivity”.
For “QFQLVESGGGLVQAGGSLRLSCAASGLTFSRYAMGWYIQAPGKERELVAAITCSGSSTYYSHSVKGRFTISRDNAKNNVYLQMNSLKPEDTAVYYCAARYGYSRGTYYRSDYWGQGTQVTVSS”, the “polyreactivity (PSR sort gate)” value was “high polyreactivity”.
In the case of “QFQLVESGGGLVQAGGSLRLSCAASGNILPAYAMGLYRQAPGKERELVAAISKSGGRTYYADSVKGRFTISLDNAKNTVYLQMNSLKPEDTAVYYALLTVLRAVPYTVRYDYWGQGTQVNVSS”, the “polyreactivity (PSR sort gate)” value is reported as “high polyreactivity”.
In the case of “QFQLVESGGGLVQAGGSLRLSCAASGRIFDLNAMGWYRQAPGKERELVAAITWSGDSTYYADSVKGRITISRDNAKNTVYLQLNSLKPEDTAVYYCAAASRTSYSWVDYEFDYWGQGTQVTVSS”, the “polyreactivity (PSR sort gate)” value is reported as “low polyreactivity”.
For “QFQLVESGGGLVQAGGSLRLSCAASGRIFKPNAMGWYRQAPGKERELVAAIRYSTGRTYYADSVKGRFTISRDNAKNTVYLQMNSLKPEDTAVYYCAARRVEYYGSQNGYWGQGTQVTVSS”, the “polyreactivity (PSR sort gate)” value was “high polyreactivity”.
For “QFQLVESGGGLVQAGGSLRLSCAASGRIFVLNAMGWYRQAPGKERELVAAISGSGSRTYYADSVKGRFTISRDNAKNTVYLQMNSLNPEDTAVYYCNNVSRRSEHTYDYWGQGTQVTVSS”, the “polyreactivity (PSR sort gate)” value was “high polyreactivity”.
For “QFQLVESGGGLVQAGGSLRLSCAASGRIFVYYMGWYRQAPRKERELVAALSFGGGSTYYADSVKGRFTISRDNAKNTVYLQMNSLKPEDNAVYYCNADGDDLDWNYYLVQYDYWGQGTQVTVSS”, the “polyreactivity (PSR sort gate)” value was “low polyreactivity”.
In the case of “QFQLVESGGGLVQAGGSLRLSCAASGRIFYRYAMGWYIQAPGKERELVAAITSGTSTNYADSVKGRFTISRDNAKNTVYVQMNSLKPEDTAVYYCAKRYYWKYAEYDYWGQGTLVTVSS”, the “polyreactivity (PSR sort gate)” value is reported as “high polyreactivity”.
With “QFQLVESGGGLVQAGGSLRLSCAASGRIFYYNAMGWYRQAPGKERELVASITGSGGSTYYADSVKGRFTISRDNAKNTVYLQMNSLKPEDTAVYYCAKREYLYPYYYVAKYDYWGQGTQVTVSS” the “polyreactivity (PSR sort gate)” value was “low polyreactivity”.
For “QFQLVESGGGLVQAGGSLRLSCAASGRTFGFNAMGWYRQAPGKERELVAALSGSGGRTYYADSVQGRFTISRDNAKNTVYLQMNSLKPEDTAVYYCAAGARRGGSGDWGQGTQVTVSS”, the “polyreactivity (PSR sort gate)” value was “high polyreactivity”.
In the case of “QFQLVESGGGLVQAGGSLRLSCAASGRTFPWYAMGWYRQEPGKDRELVAAISWTGGSTYYADSVKGRFTISRDNAKNTVYLQMNSLKPEDTAFYYCAASPWYLKYEYWGQGTQVTVSW”, the “polyreactivity (PSR sort gate)” value is reported as “low polyreactivity”.
For “QFQLVESGGGLVQAGGSLRLSCAASGRTFRGYAMGWYRQAPGKERELVAAITWRGGSTYYADSVKGRFTISRDNAKNTVYLQMNSLKPEDTAVYYCNTLVWSYLGGYYSRFDYWGQGTQVTVSS”, the “polyreactivity (PSR sort gate)” value was “high polyreactivity”.

From the nanobody polyreactivity screen of Harvey et al. (2022)
